Results reported in PMC7927077, “Glucose-Binding of Periplasmic Protein GltB Activates GtrS-GltR Two-Component System in Pseudomonas aeruginosa” (Microorganisms, 2021).

Columns and labels:
[1] = target: 6His-GtrS^LBD, the N-terminal 6His-tagged ligand-binding domain of GtrS (residues 29-199) (P. aeruginosa PAO1) (UniProt Q9HZ47); experiment: SPR; OpenSPR localized SPR; 6His-GtrS^LBD fixed on COOH chip by capture-coupling; 6His-GltB injected at 1000, 500, 250, 125 nM; 50 mM Tris, 50 mM NaCl, pH 7.0, 25 °C; one to one model
[2] = target: 6His-GltB, the N-terminal 6His-tagged GltB (P. aeruginosa PAO1); experiment: SPR; OpenSPR localized SPR; 6His-GltB fixed on COOH chip by capture-coupling; 6His-PctA^LBD (1500-500 nM) or 6His-PA2788^LBD (500-100 nM) injected; 50 mM Tris, 50 mM NaCl, pH 7.0, 25 °C; one to one model
[3] = target: T1, GltB (periplasmic glucose-binding protein) (Pseudomonas aeruginosa, UniProt Q9HZ48); experiment: ITC ([…] °C, one-site model); supported by concentration-dependent thermal shift
T1 construct: gene PA3190; 6His-GltB, the N-terminal 6His-tagged GltB

Molecule | Kd [2] [nM] | other results
6His-GltB, the N-terminal 6His-tagged GltB (natural protein) |  | Kd [1]: 100 nM
6His-PctA^LBD, the N-terminal 6His-tagged ligand-binding domain of PctA (residues 30-278) (from UniProt G3XD24 30-278) (domain or fragment) | 800 | 
OC[C@H]1OC(O)[C@H](O)[C@@H](O)[C@@H]1O (stereo partly shown) [glucose] |  | Kd [3]: 1370 nM
6His-PA2788^LBD, the N-terminal 6His-tagged ligand-binding domain of PA2788 (residues 44-179) (domain or fragment) YLSMSISPETINVAGAQRMLSQKMAREALQLRLGAGDPKALAATIAQYERSAADLDAGNAERNVSRMGAPEIAAQRQKVAQIWGRYRAMLDQVAQPASQVDLRGFSQYSTELLGELNNLVSLMSARADSVQHTQMW | 400 | 
